For two substances, duration time on MT (diffusive mode) and duration time on MT (short stop mode) results are on record in article PMC4629677.

In this experiment the target is microtubule (sea-urchin sperm axonemes) (sea urchin (sperm axonemes)). The experiment is described as follows: single-molecule fluorescence imaging.

Regarding “tail-GFP (kinesin tail 904-963 fused to EGFP) (from UniProt P33176 904-963) (domain or fragment)”, the duration time on MT (diffusive mode) came out at 1.73 s.
Regarding “2T-K490CLM, two-tail stalk-truncated cysteine-light mutant kinesin (motility and ATPase experiments) (from UniProt P33176 1-490; P33176 904-963)”, the duration time on MT (short stop mode) was 1.47 s.
